The values below come from paper PMC10283433.

In assay [1] the target is NXT007 in the dKiHv14 format (anti-FIXa/FX bispecific humanized IgG4, kappa/lambda) (human). As to the kind of experiment: SPR.
For assay [2], the target named is anti-FX antibodies with the V1 or V2 mutation pair. The experiment in a line: SPR.

On to “recombinant human FcRn (from UniProt P55899 24-365) (receptor)”, for which the FcRn binding ability after acid treatment, relative to the initial sample in assay [1] came out at 80%.

As to “human FX (Enzyme Research Laboratories, HFX 1010) (natural protein)”, the fold increase in KD against the parent in assay [2] lay in the range of 1.3 to 1.4 times.
